In patent US10662235B2, “Cysteine engineered fibronectin type III domain binding molecules” (Janssen Biotech, Inc., priority 2016, dated 2020):

Key:
[1] = Thermal stability by differential scanning calorimetry; format: physicochemical; settings: for First Scan Tm / Second Scan Tm: cysteine-NEM conjugates; for First Scan Tm: DSC 25-100° C., 1° C. per minute; for Second Scan Tm: second identical scan; for Thermal Stability (Tm, C.): c-Met-binding FN3 domains, DSC in PBS
Description: The thermal stability of cysteine-NEM conjugates was assessed by differential scanning calorimetry (DSC). The only the conjugates tested were those determined to express at high levels, conjugate efficiently, and retain EGFR binding. Additionally, cysteine variants within the BC and FG loops were excluded. Stability data was generated by heating a 400 μL aliquot of the variant from 25° C. to 100° C. at a scan rate of 1° C. per minute in a VP-DSC instrument (MicroCal). A second identical scan was completed on the sample in order to assess the reversibility of thermal folding/unfolding. Data was fitted to a 2-state unfolding model in order to calculate the melting temperature (Table 10).
Thermal Stability of c-Met-Binding FN3 Domains Differential scanning calorimetry in PBS was used to assess the stability of each FN3 domain.

[2] = Analytical size exclusion chromatography (aggregation state, percent monomer); format: physicochemical; settings: NEM-conjugated cysteine variants; SEC, Abs280
Description: Size exclusion chromatography was used to determine the aggregation state of the FN3 domains binding EGFR. Aliquots (10 μL) of each purified FN3 domain were injected onto a Superdex 75 5/150 column (GE Healthcare) at a flow rate of 0.3 mL/min in a mobile phase of PBS pH 7.4. Elution from the column was monitored by absorbance at 280 nm.
The percent monomer for each protein was determined by integrating the Abs280 signal and comparing the peak in the monomer region (5.5-6 minutes) to the peaks in the oligomer region (4-5.3 minutes).

H1573 cells = assay: Cytotoxicity assay of cytotoxin conjugates in H1573 cells; format: cell-based, human; settings: MMAF conjugates; for IC50: Cell TiterGlo at 70 hours, read-out: IC50 (cell killing)
Description: Cell killing was assessed by measuring viability of the EGFR-overexpressing human tumor cell line H1573 following exposure to the cysteine variant-cytotoxin conjugates. […] Cells were allowed to attach overnight at 37° C. in a humidified 5% CO2 atmosphere. Medium was aspirated from 96-well plate and cells were treated with 50 uL of fresh media and 50 uL of 2× inhibitor made up in fresh media. Cell viability was determined by an endpoint assay with Cell TiterGlo (Promega) at 70 hours. IC50 values were determined by fitting data to the equation for a sigmoidal dose response with variable slope using GraphPad Prism 5 (GraphPad Software).
Conjugates consisting of ECB147 cysteine variants, 83v2-cys, or Tencon-cys linked to a cytotoxic tubulin inhibitor from the auristatin family (FIG. 2) were tested for target-dependent cytotoxicity in cancer cells. The inhibitor was linked to the cysteine-containing protein via a non-cleavable PEG4 linker or an enzyme-cleavable valine-citrulline or valine-lysine linker.

B1: N6C (protein)
chain: LPAPKCLVVSEVTEDSARLSWDDPWAFYESFLIQYQESEKVGEAIVLTVPGSERSYDLTGLKPGTEYTVSIYGVHNVYKDTNMRGLPLSAIFTT
[1]
  First Scan Tm: 71 °C
  Second Scan Tm: 70 °C
[2]
  Percent monomer: 94%
H1573 cells
  IC50 relative to parent conjugate: over two times more potent than the parent
  IC50: 0.16 nM

B2: V8C (protein)
chain 1: MLPAPKNLCVSEVTEDSARLSWDDPWAFYESFLIQYQESEKVGEAIVLTVPGSERSYDLTGLKPGTEYTVSIYGVHNVYKDTNMRGLPLSAIFTT
chain 2: LPAPKNLCVSEVTEDSARLSWDDPWAFYESFLIQYQESEKVGEAIVLTVPGSERSYDLTGLKPGTEYTVSIYGVHNVYKDTNMRGLPLSAIFTT
modifications: EGFR binding FN3 domain; EGFR-binding FN3 domain
[1]
  First Scan Tm: 69 °C
  Second Scan Tm: 69 °C
[2]
  Percent monomer: 91%
H1573 cells
  IC50: 0.35 nM

B3: T93C (protein)
chain 1: MLPAPKNLVVSEVTEDSARLSWDDPWAFYESFLIQYQESEKVGEAIVLTVPGSERSYDLTGLKPGTEYTVSIYGVHNVYKDTNMRGLPLSAIFCT
chain 2: LPAPKNLVVSEVTEDSARLSWDDPWAFYESFLIQYQESEKVGEAIVLTVPGSERSYDLTGLKPGTEYTVSIYGVHNVYKDTNMRGLPLSAIFCT
modifications: EGFR binding FN3 domain; EGFR-binding FN3 domain
[1]
  First Scan Tm: 69 °C
  Second Scan Tm: 69 °C
[2]
  Percent monomer: 100%
H1573 cells
  IC50 relative to parent conjugate: over two times more potent than the parent
  IC50: 0.2 nM

B4: S10C (protein)
chain 1: MLPAPKNLVVCEVTEDSARLSWDDPWAFYESFLIQYQESEKVGEAIVLTVPGSERSYDLTGLKPGTEYTVSIYGVHNVYKDTNMRGLPLSAIFTT
chain 2: LPAPKNLVVCEVTEDSARLSWDDPWAFYESFLIQYQESEKVGEAIVLTVPGSERSYDLTGLKPGTEYTVSIYGVHNVYKDTNMRGLPLSAIFTT
modifications: EGFR binding FN3 domain; EGFR-binding FN3 domain
[1]
  First Scan Tm: 68 °C
  Second Scan Tm: 68 °C
[2]
  Percent monomer: 80%
H1573 cells
  IC50: 0.43 nM

B5: S16C (protein)
chain 1: MLPAPKNLVVSEVTEDCARLSWDDPWAFYESFLIQYQESEKVGEAIVLTVPGSERSYDLTGLKPGTEYTVSIYGVHNVYKDTNMRGLPLSAIFTT
chain 2: LPAPKNLVVSEVTEDCARLSWDDPWAFYESFLIQYQESEKVGEAIVLTVPGSERSYDLTGLKPGTEYTVSIYGVHNVYKDTNMRGLPLSAIFTT
modifications: EGFR binding FN3 domain; EGFR-binding FN3 domain
[1]
  First Scan Tm: 68 °C
  Second Scan Tm: 68 °C
[2]
  Percent monomer: 75%
H1573 cells
  IC50: 0.75 nM

B6: E53C (protein)
chain: MLPAPKNLVVSEVTEDSARLSWDDPWAFYESFLIQYQESEKVGEAIVLTVPGSCRSYDLTGLKPGTEYTVSIYGVHNVYKDTNMRGLPLSAIFTT
modifications: EGFR binding FN3 domain
H1573 cells
  IC50 relative to parent conjugate: over two times more potent than the parent

B7: P114AR7P92-G8: c-Met-binding FN3 domain, SEQ ID NO: 36 (protein)
chain: LPAPKNLVVSRVTEDSARLSWTAPDAAFDSFVIRYFEFLGSGEAIVLTVPGSERSYDLTGLKPGTEYVVQILGVKGGYISIPLSAIFTT
modifications: c-Met binding FN3 domain
[1]
  Thermal Stability (Tm, C.): 90.9 C.

B8: P114AR7P95-F10: c-Met-binding FN3 domain, SEQ ID NO: 47 (protein)
chain: LPAPKNLVVSRVTEDSARLSWTAPDAAFDSFWIRYFEFTTAGEAIVLTVPGSERSYDLTGLKPGTEYVVNIMGVKGGSISPPLSAIFTT
modifications: c-Met binding FN3 domain
[1]
  Thermal Stability (Tm, C.): 85.2 C.

B9: P114AR7P95-G7: c-Met-binding FN3 domain, SEQ ID NO: 48 (protein)
chain: LPAPKNLVVSRVTEDSARLSWTAPDAAFDSFWIRYFELLSTGEAIVLTVPGSERSYDLTGLKPGTEYVVNIMGVKGGSISPPLSAIFTT
modifications: c-Met binding FN3 domain
[1]
  Thermal Stability (Tm, C.): 87.2 C.

B10: P114AR7P92-F6: c-Met-binding FN3 domain, SEQ ID NO: 35 (protein)
chain: LPAPKNLVVSRVTEDSARLSWTAPDAAFDSFWIRYFEFLGSGEAIVLTVPGSERSYDLTGLKPGTEYVVNILGVKGGGLSVPLSAIFTT
modifications: c-Met binding FN3 domain
[1]
  Thermal Stability (Tm, C.): 76.8 C.

B11: P114AR7P93-H9: c-Met-binding FN3 domain, SEQ ID NO: 40 (protein)
chain: LPAPKNLVVSRVTEDSARLSWTAPDAAFDSFWIRYFEFLGSGEAIVLTVPGSERSYDLTGLKPGTEYVVQIIGVKGGHISLPLSAIFTT
modifications: c-Met binding FN3 domain
[1]
  Thermal Stability (Tm, C.): 88.2 C.

B12: P114AR7P95-D4: c-Met-binding FN3 domain, SEQ ID NO: 45 (protein)
chain: LPAPKNLVVSRVTEDSARLSWTAPDAAFDSFWIRYFEFLGSGEAIVLTVPGSERSYDLTGLKPGTEYVVQILGVKGGYISIPLSAIFTT
modifications: c-Met binding FN3 domain
[1]
  Thermal Stability (Tm, C.): 85.3 C.

B13: P114AR7P92-H5: c-Met-binding FN3 domain, SEQ ID NO: 37 (protein)
chain: LPAPKNLVVSRVTEDSARLSWTAPDAAFDSFWIRYLEFLLGGEAIVLTVPGSERSYDLTGLKPGTEYVVQIMGVKGGTVSPPLSAIFTT
modifications: c-Met binding FN3 domain
[1]
  Thermal Stability (Tm, C.): 87 C.

B14: P114AR7P94-E5: c-Met-binding FN3 domain, SEQ ID NO: 42 (protein)
chain: LPAPKNLVVSRVTEDSARLSWTAPDAAFDSFWIRYFEFLGSGEAIVLTVPGSERSYDLTGLKPGTEYAVNIMGVKGGRVSVPLSAIFTT
modifications: c-Met binding FN3 domain
[1]
  Thermal Stability (Tm, C.): 80 C.

B15: P114AR7P95-H8: c-Met-binding FN3 domain, SEQ ID NO: 49 (protein)
chain: LPAPKNLVVSRVTEDSARLSWTAPDAAFDSFWIRYFEFVSKGEAIVLTVPGSERSYDLTGLKPGTEYVVNIMGVKGGSISPPLSAIFTT
modifications: c-Met binding FN3 domain
[1]
  Thermal Stability (Tm, C.): 83 C.

B16: P114AR7P93-G8: c-Met-binding FN3 domain, SEQ ID NO: 39 (protein)
chain: LPAPKNLVVSRVTEDSARLSWTAPDAAFDSFWIRYFEFLGSGEAIVLTVPGSERSYDLTDLKPGTEYGVTINGVKGGRVSTPLSAIFTT
modifications: c-Met binding FN3 domain
[1]
  Thermal Stability (Tm, C.): 76.8 C.

B17: P114AR5P74-A5: c-Met-binding FN3 domain, SEQ ID NO: 32 (protein)
chain: LPAPKNLVVSRVTEDSARLSWTAPDAAFDSFWIRYDEVVVGGEAIVLTVPGSERSYDLTGLKPGTEYYVNILGVKGGSISVPLSAIFTT
modifications: c-Met binding FN3 domain
[1]
  Thermal Stability (Tm, C.): 74.1 C.

B18: P114AR7P94-A3: c-Met-binding FN3 domain, SEQ ID NO: 41 (protein)
chain: LPAPKNLVVSRVTEDSARLSWTAPDAAFDSFWIRYFEFLGSGEAIVLTVPGSERSYDLTGLKPGTEYVVNIMGVKGGKISPPLSAIFTT
modifications: c-Met binding FN3 domain
[1]
  Thermal Stability (Tm, C.): 86.2 C.
